Data reported in patent publication US20160083466A1 (Regeneron, published 2016).

T1: human IL-25 expressed with a C-terminal myc-myc-hexahistidine tag (human)
T1 construct: also called human IL-25-MMH; hIL-25-MMH
T1 chain: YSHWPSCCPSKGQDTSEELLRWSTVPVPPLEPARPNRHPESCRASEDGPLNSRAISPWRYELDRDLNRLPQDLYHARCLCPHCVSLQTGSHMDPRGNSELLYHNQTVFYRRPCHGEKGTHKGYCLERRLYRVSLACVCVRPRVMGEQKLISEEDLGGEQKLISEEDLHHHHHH

T2: monkey IL-25 expressed with a C-terminal myc-myc-hexahistidine tag (M. fascicularis (cynomolgus monkey))
T2 construct: also called monkey IL-25-MMH; MfIL-25-MMH
T2 chain: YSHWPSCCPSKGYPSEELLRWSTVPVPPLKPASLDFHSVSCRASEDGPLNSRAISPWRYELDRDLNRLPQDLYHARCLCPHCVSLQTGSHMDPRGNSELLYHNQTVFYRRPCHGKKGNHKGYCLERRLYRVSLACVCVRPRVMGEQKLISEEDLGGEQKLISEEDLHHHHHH

T3: mouse IL-25 expressed with a C-terminal myc-myc-hexahistidine tag (mouse)
T3 construct: also called Mouse IL-25-MMH; mIL-25-MMH
T3 chain: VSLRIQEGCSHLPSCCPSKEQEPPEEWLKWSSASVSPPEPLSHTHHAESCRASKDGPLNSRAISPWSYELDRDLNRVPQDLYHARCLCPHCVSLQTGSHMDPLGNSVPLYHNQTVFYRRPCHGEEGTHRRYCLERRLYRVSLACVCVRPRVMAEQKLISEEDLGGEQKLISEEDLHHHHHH

T4: rat IL-25 expressed with a C-terminal myc-myc-hexahistidine tag (rat)
T4 construct: also called Rat IL-25-MMH
T4 chain: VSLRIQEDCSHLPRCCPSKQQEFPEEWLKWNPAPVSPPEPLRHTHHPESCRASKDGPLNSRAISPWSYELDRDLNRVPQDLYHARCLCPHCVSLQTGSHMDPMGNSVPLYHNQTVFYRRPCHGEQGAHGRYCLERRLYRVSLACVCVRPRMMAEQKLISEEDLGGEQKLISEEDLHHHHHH

T5: human IL-25 expressed with a C-terminal myc-myc-hexahistidine tag (human)
T5 construct: also called hIL-25-MMH; Human IL-25-MMH
T5 chain: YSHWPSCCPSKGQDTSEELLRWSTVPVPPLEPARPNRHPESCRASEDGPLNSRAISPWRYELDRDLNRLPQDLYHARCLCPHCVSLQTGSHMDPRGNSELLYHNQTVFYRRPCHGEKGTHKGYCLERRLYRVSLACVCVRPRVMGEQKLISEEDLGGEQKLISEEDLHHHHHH


Tests used:
[1] = target: T1, human IL-25 expressed with a C-terminal …; experiment: SPR Biacore, captured mAb, 25°C;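 as to 100 nM Human IL-25-MMH Bound (RU): biacore 4000 SPR with IL-25-MMH as analyte over purified anti-IL-25 antibodies, association and dissociation rates derived from fitting sensorgrams to a 1:1 binding model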;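 as to 100 nM Monkey IL-25-MMH Bound (RU): Real-time surface plasmon resonance on a Biacore 4000, with IL-25-MMH binding to purified anti-IL-25 antibodies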
Method: (§1) Equilibrium dissociation constants (KD values) for IL-25 binding to purified anti-IL-25 antibodies were determined using a real-time surface plasmon resonance biosensor assay on a Biacore 4000 instrument (GE Healthcare). […] All the IL-25 reagents were expressed with a C-terminal myc-myc-hexahistidine tag (referred to herein as “IL-25-MMH”). […] Kinetic association (kₐ) and dissociation (kd) rate constants were determined by fitting the real-time sensorgrams to a 1:1 binding model using Scrubber 2.0c curve fitting software.

[2] = target: T1, human IL-25 expressed with a C-terminal …; experiment: SPR Biacore, captured mAb, 37°C
Method: as §1

[3] = target: T2, monkey IL-25 expressed with a …; experiment: SPR Biacore, captured mAb, 25°C;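 as to 100 nM Human IL-25-MMH Bound (RU): biacore 4000 SPR with IL-25-MMH as analyte over purified anti-IL-25 antibodies, association and dissociation rates derived from fitting sensorgrams to a 1:1 binding model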;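 as to 100 nM Monkey IL-25-MMH Bound (RU): Real-time surface plasmon resonance on a Biacore 4000, with IL-25-MMH binding to purified anti-IL-25 antibodies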
Method: as §1

[4] = target: T3, mouse IL-25 expressed with a C-terminal …; experiment: SPR Biacore, antibody captured, 25C;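 as to 100 nM Rat IL-25-MMH Bound (RU): purified anti-IL-25 antibodies were tested by real-time surface plasmon resonance on a Biacore 4000, with rate constants obtained from sensorgram fits to a 1:1 binding model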
[5] = target: T3, mouse IL-25 expressed with a C-terminal …; experiment: SPR Biacore, antibody captured, 37C;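 as to 100 nM Mouse IL-25-MMH Bound (RU): Real-time sensorgrams of IL-25-MMH binding to purified anti-IL-25 antibodies, rate constants obtained by fitting a 1:1 binding model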
Method: as §1

[6] = target: T4, rat IL-25 expressed with a C-terminal …; experiment: SPR Biacore, antibody captured, 25C;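 as to 100 nM Rat IL-25-MMH Bound (RU): purified anti-IL-25 antibodies were tested by real-time surface plasmon resonance on a Biacore 4000, with rate constants obtained from sensorgram fits to a 1:1 binding model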
Method: as §1

[7] = target: T4, rat IL-25 expressed with a C-terminal …; experiment: SPR Biacore, antibody captured, 37C;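 as to 100 nM Mouse IL-25-MMH Bound (RU): Real-time sensorgrams of IL-25-MMH binding to purified anti-IL-25 antibodies, rate constants obtained by fitting a 1:1 binding model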
Method: as §1

[8] = target: T5, human IL-25 expressed with a C-terminal …; experiment: BLI Octet, hIL-25-MMH captured on anti-Penta-His sensor, 25C
Method: Binding competition between anti-IL-25 monoclonal antibodies was determined using a real time, label-free bio-layer interferometry assay on an Octet QK384 biosensor (Pall ForteBio Corp.).
The biosensors were washed in HBST kinetics buffer in between every step of the experiment. The real-time binding response was monitored during the course of the experiment and the binding response at the end of every step was recorded.

[9] = target: T5, human IL-25 expressed with a C-terminal …; experiment: competition ELISA, 2 nM hIL-25-MMH binding to coated hIL-17RB-hFc
Method: Data analysis was performed using a sigmoidal dose-response model within Prism™ software (GraphPad). […] The absorbance values of the wells containing the highest concentration for each antibody were used to determine the percent maximum blockade.

Binder | 100 nM Human IL-25-MMH Bound (RU) [1] | Kd [1] | koff [1] | kon [1] | t½ [1] | 100 nM Human IL-25-MMH Bound (RU) [2] | Kd [2] | koff [2] | kon [2] | t½ [2] | 100 nM Monkey IL-25-MMH Bound (RU) [3] | Kd [3] | koff [3] | kon [3] | t½ [3] | 100 nM Mouse IL-25-MMH Bound (RU) [4] | 100 nM Mouse IL-25-MMH Bound (RU) [5] | 100 nM Rat IL-25-MMH Bound (RU) [6] | 100 nM Rat IL-25-MMH Bound (RU) [7] | 50 ug/mL mAb-1 Binding (nm) [8] | also measured
H4H10897P (antibody, human IgG4, V domains shown) VH: QVQLQESGPGLVKPSETLSLTCTVSGGSISDYYWSWIRQPPGKGLEWIGHIYYSGSTNHNPSLKSRVAISVDTSKNQFSLRLYSVTAADTAVYYCARDGYSSSSGFYYFGMDVWGQGTTVTVSS VL: DIQLTQSPSFLSASVGDRVTITCWASQDINSYLAWYQQKPGKAPKLLIFAASTLQGGVPSRFSGSGSGTEFTLTISSLQPEDFATYYCQHLSSFPPTFGQGTRLEIK | 39 RU | 0.126 nM | 7.87e-05 s⁻¹ | 623000 M⁻¹ s⁻¹ | 147 min | 48 RU | 0.218 nM | 0.000226 s⁻¹ | 1.04e+06 M⁻¹ s⁻¹ | 51 min | 42 RU | 0.0749 nM | 8.43e-05 s⁻¹ | 1.13e+06 M⁻¹ s⁻¹ | 137 min |  |  |  |  |  | 
H2M10690N (antibody, V domains shown, also called H2aM10690N) VH: QVQLVQSGAEVKKPGASVKVSCKASGYTFTSYGISWVRQAPGQGLEWMGWISAYNGNTNYAQKLQGRVTMTTDTSTSTAYMELRSLRSDDTAVYYCARVPITGTTWFDPWGQGTLVTVSS VL: not shown | 32 RU | 36.2 nM | 0.0029 s⁻¹ | 80200 M⁻¹ s⁻¹ | 4 min | 39 RU | 61.4 nM | 0.00844 s⁻¹ | 137000 M⁻¹ s⁻¹ | 1.4 min |  |  |  |  |  |  |  |  |  |  | 

Second part, led by results:

100 nM Human IL-25-MMH Bound (RU) [1] | Kd [1] | koff [1] | kon [1] | t½ [1] | 100 nM Human IL-25-MMH Bound (RU) [2] | Kd [2] | koff [2] | kon [2] | t½ [2] | 100 nM Monkey IL-25-MMH Bound (RU) [3] | Kd [3] | koff [3] | kon [3] | t½ [3] | 100 nM Mouse IL-25-MMH Bound (RU) [4] | 100 nM Mouse IL-25-MMH Bound (RU) [5] | 100 nM Rat IL-25-MMH Bound (RU) [6] | 100 nM Rat IL-25-MMH Bound (RU) [7] | 50 ug/mL mAb-1 Binding (nm) [8] | Binder | also measured
38 RU | 0.0851 nM | 6.38e-05 s⁻¹ | 749000 M⁻¹ s⁻¹ | 181 min | 49 RU | 0.0276 nM | 3.18e-05 s⁻¹ | 1.15e+06 M⁻¹ s⁻¹ | 363 min | 42 RU | 0.0965 nM | 6.06e-05 s⁻¹ | 628000 M⁻¹ s⁻¹ | 191 min |  |  |  |  |  | H4H10871P (antibody, human IgG4, V domains shown) VH: QVQLVQSGAEVMKPGASVKVSCKSSDFAFTTYGISWVRQAPGQGLEWMGWISAYNGNTNYEQRFQGRITMTTDTSTTTVYMELRSLRSDDTAVYYCARDPDYCSSNTCSDAFDLWGQGTMVTVSS VL: DIQMTQSPSSLSASVRDRVTITCRASQGITNYLAWYQQKPGKVPKVLIYAASTLQSGVPSRFSGSGSGTEFTLAISSLQPEDVATYFCQQYGSAPWTFGQGTKVEIK | 
 |  |  |  |  |  |  |  |  |  |  |  |  |  |  | 17 RU | 27 RU | 18 RU | 20 RU | 1.38 nm | H2aM10690N (antibody, V domains shown, also called H2M10690N) VH: QVQLVQSGAEVKKPGASVKVSCKASGYTFTSYGISWVRQAPGQGLEWMGWISAYNGNTNYAQKLQGRVTMTTDTSTSTAYMELRSLRSDDTAVYYCARVPITGTTWFDPWGQGTLVTVSS VL: not shown | Kd [4]: 82.3 nM; koff [4]: 0.00319 s⁻¹; kon [4]: 38800 M⁻¹ s⁻¹; t½ [4]: 4 min; Kd [5]: 81.7 nM; koff [5]: 0.00778 s⁻¹; kon [5]: 95300 M⁻¹ s⁻¹; t½ [5]: 1.5 min; Kd [6]: 103 nM; koff [6]: 0.0095 s⁻¹; kon [6]: 91800 M⁻¹ s⁻¹; t½ [6]: 1.2 min; Kd [7]: 115 nM; koff [7]: 0.0193 s⁻¹; kon [7]: 168000 M⁻¹ s⁻¹; t½ [7]: 0.6 min; % Maximum blocking of 200 nM antibody [9]: 70%; IC50 [9]: 31 nM
 |  |  |  |  |  |  |  |  |  |  |  |  |  |  | 0 RU | 2 RU | -1 RU | 3 RU | 1.42 nm | H1M11009N (antibody, mouse IgG1, V domains shown, H1M prefix = mouse IgG1 Fc) VH: EVQLVESGGGLVEPGGSLRLSCVASGFTFSNAWMNWVRQAPGKGLEWVGHIERKTDGGTTDFAAPVKGRFTISRDDSKNTLYLQMNSLKTEDTAVYYCTTVGPYSVPFDYWGQGTLVTVSS VL: not shown | binding result [4]: no binding (tested: 100 nM)
